Assay results taken from US20250011450A1.
Positions count from the first letter of the chain named.

B1: anti-OX40 clone 3C8, iAbaff1 monomeric Fab (Fab, part only; not given: Light chain, CH1 and tag, not shown: small tags and cut ends)
heavy, part: EVQLVQSGAEVKKPGATVVVLCKASGYAFTNYLIEWVRQAPGQGLEWIGVINPGSGDTYYSEKFKGRVTLFADTSTSQAILILTSLRSEDTAVYYCARDRLDYWGQGTLVTVSS
B2: anti-OX40 clone 3C8, iAbaff2 IgG (antibody, part only; not given: Light chain, V domains shown, part only)
VH: B1 heavy, part with T17S, V19I, L21S, T69F, Q78T, I80Y, I82V, T84S

How the values were obtained:
[1] = molecular target: OX40 expressed on Jurkat cells (NF-kB luciferase reporter line) (UniProt P43489); assay: cell-based or functional assay
Chain of UniProt P43489 (P43489 29-277 limits assumed): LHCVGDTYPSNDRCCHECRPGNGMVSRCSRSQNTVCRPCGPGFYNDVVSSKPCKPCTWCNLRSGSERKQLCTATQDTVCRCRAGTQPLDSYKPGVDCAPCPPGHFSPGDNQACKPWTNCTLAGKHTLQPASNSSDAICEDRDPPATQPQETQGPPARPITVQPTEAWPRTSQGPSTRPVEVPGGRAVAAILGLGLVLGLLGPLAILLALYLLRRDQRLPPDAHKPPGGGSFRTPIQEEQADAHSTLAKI

[2] = molecular target: anti-OX40 clone 3C8, iAbaff2 IgG; assay: SEC-MALS, self-association
[3] = molecular target: anti-OX40 clone 3C8, iAbaff2 IgG; assay: SEC-MALS at 1.9 mg/ml, self-association
[4] = molecular target: anti-OX40 clone 3C8, iAbaff2 IgG; assay: SEC-MALS at 4.9 mg/ml, self-association
[5] = molecular target: anti-OX40 clone 3C8, iAbaff2 IgG; assay: SEC-MALS at 0.38 mg/ml, self-association

Row | Binder | EC50 of OX40 agonist activity (Jurkat OX40 NF-kB luciferase reporter), fold against iAb IgG [1] | maximal OX40 agonist activity (Jurkat OX40 NF-kB luciferase reporter), fold against iAb IgG [1] | SEC-MALS Molecular Weight (Da) [2] | SEC-MALS Molecular Weight (Da) [3] | SEC-MALS Molecular Weight (Da) [4] | SEC-MALS Molecular Weight (Da) [5]
1 | B1 | 100 fold | 2 fold | – | – | – | –
2 | B2 | – | – | 227000 Da | 225000 Da | 244000 Da | 204000 Da
